Laboratory results reported in article PMC8559680, “Dynamics in Fip1 regulate eukaryotic mRNA 3′ end processing” (Genes & Development, 2021).

B1: Fip1_(226) (Fip1 residues 1–226), purified from E. coli (domain or fragment, yeast, UniProt P45976 1-226, looked up)
chain: MSSSEDEDDKFLYGSDSELALPSSKRSRDDEADAGASSNPDIVKRQKFDSPVEETPATARDDRSDEDIYSDSSDDDSDSDLEVIISLGPDPTRLDAKLLDSYSTAATSSSKDVISVATDVSNTITKTSDERLITEGEANQGVTATTVKATESDGNVPKAMTGSIDLDKEGIFDSVGITTIDPEVLKEKPWRQPGANLSDYFNYGFNEFTWMEYLHRQEKLQQDYNP
notes: Isotopically labelled (15N, 13C, 2H) where it is the observed species in NMR; cloned in pET28a+; also called Fip226; source: E. coli BL21 Star, purified (Ni-NTA, TEV cleavage, Superdex 75); not shown: His tag, N-terminal, cleaved
B2: Yth1_(ZF45C) (Yth1 residues 118–208) (domain or fragment, yeast, UniProt Q06102 118-208, looked up)
chain: ASKIPKCENYEMGFCPLGSSCPRRHIKKVFCQRYMTGFCPLGKDECDMEHPQFIIPDEGSKLRIKRDDEINTRKMDEEKERRLNAIINGEV
notes: Yth1, yeast, zinc fingers 4 and 5 and the rest of the C-terminal region, residues 118–208; 15N- or 13C,15N-labelled where it is the observed species in NMR; cloned in pGEX6P-2; also called entire C-terminal half of Yth1; source: E. coli BL21 Star, purified (GST resin, 3C cleavage, Superdex 75); not shown: GST, N-terminal, cleaved

Legend:
[1] = molecular target: T1, CPFΔFip1 (recombinant CPF lacking Fip1; Pap1 also absent) (yeast, UniProt Q06632 1-1357; P42841 1-465; Q06102 1-208; Q12102 1-859; Q06224 1-779; P35728 …); test: mass photometry; Refeyn One iSCAT; samples diluted to 100 nM in 50 mM HEPES (pH 7.4), 150 mM NaCl; details: both partners purified
T1 construct: Cft1, yeast; as m20; Pfs2, yeast, untagged; as m19; Yth1, yeast, untagged; as m12; Cft2, yeast; as m21; Ysh1, yeast; as m22; Mpe1, yeast; as m23; Pta1, yeast; as m24; Ssu72, yeast; as m25; Pti1, yeast; as m26; Glc7, yeast; as m27; as m28; Swd2, yeast; as m29; Twelve subunits: Fip1 was omitted from the CPFcore construct and Pap1, though co-expressed, was absent from the purified complex; source: …

[2] = molecular target: Yth1ZF4 (Yth1 zinc finger 4) (yeast) (UniProt Q06102); test: ITC; MicroCal iTC200, 25°C, 50 mM HEPES (pH 7.4), 150 mM NaCl; single class-binding site model
[3] = molecular target: B1; test: NMR titration; 15N-labelled Yth1 construct with unlabelled Fip1_(226), equimolar, 75 µM; chemical shift perturbations and line broadening; 700 MHz, 298 K, 50 mM HEPES (pH 7.4), 150 mM NaCl; details: both partners purified

| Binder | binding result [1] | Kd [2] | binding result [3] |
| --- | --- | --- | --- |
| B1 | binds | 240 nM | – |
| B2 | – | – | binds |
